From patent US20120264815

Molecular target: von Willebrand factor (VWF) (Homo sapiens) (UniProt P04275)
Assay: filter
Details: 2'-F pyrimidines; pool after 4 rounds convergent SELEX

## GGGAGGACGAUGCGGNNNNNNNNNNNNNNNNNNNNNNNNNNNNNNNNNNNNNNNNCAGACGACUCGCUGAGGAUCC [VWF convergent SELEX round 4 pool (R9)]
  Kd: 4.5 nM
